From patent publication US20220064286A1 (Genentech, published 2022)

Key:
[1] = target: T1, cynomolgus TIGIT on CHO cells (cynomolgus monkey, UniProt A0A7N9I9V4 89-312); assay: FACS blocking assay: labelled PVR-Fc (blocked ligand; text: cyPVR, scheme of FIG. 4A prints hPVR.Fc) on CHO cells expressing cyno TIGIT
T1 construct: whole, on cells; also called CHO-cyTIGIT; cyTIGIT
Procedure: These studies were further validated in CHO-TIGIT PVR blocking experiments in which TIGIT-expressing CHO cells were incubated with labeled PVR-Fc fusion protein in the presence of anti-TIGIT antibody or an human IgG1 control (FIG. 4A).

human TIGIT protein [2] = target: T2, human TIGIT protein (human, UniProt Q495A1 22-141, limits assumed); assay: SPR, monovalent affinity
T2 construct: Recombinant protein (Genentech) used in ELISA screening and as SPR analyte; also called TIGIT antigen
T2 sequence: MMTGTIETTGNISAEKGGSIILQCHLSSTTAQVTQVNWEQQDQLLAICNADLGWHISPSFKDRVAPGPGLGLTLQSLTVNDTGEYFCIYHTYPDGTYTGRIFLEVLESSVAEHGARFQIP

[3] = target: T3, cynomolgus monkey (cyno) TIGIT protein (cynomolgus monkey, UniProt A0A7N9I9V4 89-209); assay: SPR, monovalent affinity
T3 sequence (A0A7N9I9V4 entry or part of it): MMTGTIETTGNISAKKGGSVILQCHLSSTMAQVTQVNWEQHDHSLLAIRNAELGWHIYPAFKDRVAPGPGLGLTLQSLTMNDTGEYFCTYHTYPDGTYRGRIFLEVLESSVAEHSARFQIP

human TIGIT protein [4] = target: T2, human TIGIT protein; assay: SPR, captured mAb
Excerpt: (§1) To prevent unwanted pyroglutamate formation for clones 4.1A4, 4.1 D3, and 7.4A3 (also referred to as 1A4, 1 D3, and 4A3, respectively) and to resolve the issue of unpaired cysteine residues for clones 4.1A4 and 7.4A3, the following optimized anti-TIGIT antibody variants were generated: 4.1A4.C96S.Q1E, 4.1A4.C96Y.Q1E, 4.1 D3.Q1E, 7.4A3.C96S.Q1E, and 7.4A3.C96Y.Q1E (also referred to as 1A4.C96S.Q1E, 1A4.C96Y.Q1E, 1 D3.Q1E, 4A3.C96S.Q1E, and 4A3.C96Y.Q1E, respectively). As described below in Table 2, the affinities of these five optimized variants for human and cynomolgus monkey (cyno) TIGIT were then determined by Surface Plasmon Resonance (SRP) (BIACORE™ analysis) and compared to that of their respective parental clones.
(§2) Briefly, a series S CM5 biosensor chip was activated with N-ethyl-N′-(3-dimethylaminopropyl)-carbodiimide hydrochloride (EDC) and N-hydroxysuccinimide (NHS) reagents according to the supplier's (GE Healthcare Biosciences, Piscataway, N.J.) instructions, and a human antibody capture kit was applied to couple goat anti-human Fc IgGs in order to achieve approximately 10,000 response units (RU) on each flow cell, followed by blocking un-reacted groups with 1M ethanolamine.
(§3) (flow rate: 30 μl/min) with no regeneration between injections. The sensorgrams were recorded and evaluated by BIAcore™ T200 Evaluation Software (version 2.0) after subtraction of reference cell signal. Association rates (kₒₙ) and dissociation rates (koff) were calculated using a simple one-to-one Langmuir binding model. The equilibrium dissociation constant (KD) was calculated as the ratio koff/kₒₙ.

[5] = target: T3, cynomolgus monkey (cyno) TIGIT protein; assay: SPR, captured mAb
Excerpt: as §1, §2, §3

human TIGIT protein [6] = target: T2, human TIGIT protein; assay: SPR, bivalent affinity
[7] = target: T3, cynomolgus monkey (cyno) TIGIT protein; assay: SPR, bivalent affinity
[8] = target: T1, cynomolgus TIGIT on CHO cells; assay: FACS on CHO cells expressing cyno TIGIT, FITC anti-hIgG detection
Procedure: Additional in vitro binding studies of the OMT- and SD-derived anti-TIGIT antibody clones were conducted. The OMT- and SD-derived anti-TIGIT clones were tested for binding to human and cyno TIGIT expressed on the surface of CHO cells by FACS analysis. CHO cells were transfected with full-length human TIGIT (CHO-hTIGIT) or cynomologous TIGIT (CHO-cyTIGIT). The TIGIT-expressing CHO cells were incubated with each anti-TIGIT antibody at the indicated concentrations and then detected via a FITC-labeled anti-hIgG antibody (see FIG. 1A) using standard methods. The results, shown in Table 6 and FIGS. 1B-1E, corroborate the results from the BIACORE™ analysis, described above.

T1 sequence (A0A7N9I9V4 entry or part of it): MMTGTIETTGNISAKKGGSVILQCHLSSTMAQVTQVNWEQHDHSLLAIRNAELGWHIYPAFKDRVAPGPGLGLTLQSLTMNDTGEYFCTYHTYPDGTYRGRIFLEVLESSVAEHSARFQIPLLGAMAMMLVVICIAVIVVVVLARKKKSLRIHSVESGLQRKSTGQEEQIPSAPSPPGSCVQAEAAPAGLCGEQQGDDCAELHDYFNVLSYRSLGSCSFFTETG

B1: 7.4A3 (antibody, V domains shown)
VH: QVQLVQSGSDLKKPGASVRVSCKASGYTFTSYPMNWVRQAPGHGLEWMGWINTNTGNPTYVQGFTGRFVFSLDTSVNTAYLQISSLKAEDTAVYFCARTGGHTYDSYAFDVWGQGTMVTVSS
VL: DIQLTQSPTFLSASVGDRVTITCRASQVISSSLAWYQQNPGKAPKLLIYAASTLQSGVPSRFSGSGSGTEFTLTISSLQPEDFVTYYCQHLHGYPCNFGQGTKVEIK
notes: OMT rat-derived human antibody; also called 7.4A3.Q1.C96
Question: For B1, which “IC50 (read off the curve)” value [1] is on record?
Answer: The value was about 0.3 nM.

Question: What about the Kd (human TIGIT protein [2]) of the same binder?
Answer: The Kd was 3.6 nM.

Question: What about the Kd [3] of the same binder?
Answer: Its Kd is 1.6 nM.

Question: And the Kd (human TIGIT protein [4])?
Answer: Its Kd is 3.44 nM.

Question: What about the koff (human TIGIT protein [4]) of the same binder?
Answer: The koff was 0.00104 s⁻¹.

Question: And the kon (human TIGIT protein [4])?
Answer: The kon was 302000 M⁻¹ s⁻¹.

Question: And the Kd [5]?
Answer: Its Kd is 2.09 nM.

Question: And the koff [5]?
Answer: Its koff is 0.000699 s⁻¹.

Question: What about the kon [5] of the same binder?
Answer: Its kon is 334000 M⁻¹ s⁻¹.

Question: And the Kd (human TIGIT protein [6])?
Answer: Its Kd is 0.098 nM.

Question: What about the Kd [7] of the same binder?
Answer: Its Kd is at most 0.05 nM.

Question: And the “EC50 (read off the curve)” value [8]?
Answer: The value was about 1 nM.

B2: 7.4A3.C96Y.Q1E (antibody, V domains shown)
VH: EVQLVQSGSDLKKPGASVRVSCKASGYTFTSYPMNWVRQAPGHGLEWMGWINTNTGNPTYVQGFTGRFVFSLDTSVNTAYLQISSLKAEDTAVYFCARTGGHTYDSYAFDVWGQGTMVTVSS
VL: DIQLTQSPTFLSASVGDRVTITCRASQVISSSLAWYQQNPGKAPKLLIYAASTLQSGVPSRFSGSGSGTEFTLTISSLQPEDFVTYYCQHLHGYPYNFGQGTKVEIK
notes: No entry is tied to this variant by name; built from 7.4A3 with the two named changes (Q1E in the heavy chain, C96Y in HVR-L3); also called 7.4A3.Q1E.C96Y
Question: B2 was tested. Which Kd (human TIGIT protein [2]) did it give?
Answer: Its Kd is 98.1 nM.

Question: What about the Kd [3] of the same binder?
Answer: The Kd was 35.5 nM.

Question: What about the Kd (human TIGIT protein [4]) of the same binder?
Answer: The Kd was 98 nM.

Question: And the koff (human TIGIT protein [4])?
Answer: Its koff is 0.0365 s⁻¹.

Question: And the kon (human TIGIT protein [4])?
Answer: Its kon is 372000 M⁻¹ s⁻¹.

Question: And the Kd [5]?
Answer: The Kd was 35.6 nM.

Question: And the koff [5]?
Answer: The koff was 0.014 s⁻¹.

Question: And the kon [5]?
Answer: The kon was 395000 M⁻¹ s⁻¹.

B3: 4.1A4.C96S.Q1E (antibody, V domains shown)
VH: EVQLVQSGSELKKPGASVKVSCKASGYTLTNYPMNWVRQAPGRGLEWMGWINTNTGSPAYAQDFTERFVFSLDTSVTTAYLQISSLKAEDTAVYYCARTAITSVYHFDYWGQGTLVTVSS
VL: DIQLTQSPSFLSASVGDRVTITCRASQGISSYLAWYQQKPGKAPRVLIYGATTLQSGVPSRFSGSESGTEFTLTISSLQPEDLATYYCQKLNSHPSSFGQGTKVEIK
notes: FR/HVR pieces in order; also called 4.1A4.Q1E.C96S
Question: Which results are given for B3?
Answer: IC50 (read off the curve) [1]: ~0.09 nM; Kd [3]: 12.6 nM; Kd [5]: 12.6 nM; koff [5]: 0.0169 s⁻¹; kon [5]: 1.34e+06 M⁻¹ s⁻¹; EC50 (read off the curve) [8]: ~0.5 nM
